Measured values from publication doi:10.1101/2025.03.24.644971.
Positions count from the first letter of the chain named.

T1: Scer_Rsc1 221-596 basic-surface mutant (Saccharomyces cerevisiae, UniProt P53236 221-596, K246E;R249E;R250E)
T1 sequence: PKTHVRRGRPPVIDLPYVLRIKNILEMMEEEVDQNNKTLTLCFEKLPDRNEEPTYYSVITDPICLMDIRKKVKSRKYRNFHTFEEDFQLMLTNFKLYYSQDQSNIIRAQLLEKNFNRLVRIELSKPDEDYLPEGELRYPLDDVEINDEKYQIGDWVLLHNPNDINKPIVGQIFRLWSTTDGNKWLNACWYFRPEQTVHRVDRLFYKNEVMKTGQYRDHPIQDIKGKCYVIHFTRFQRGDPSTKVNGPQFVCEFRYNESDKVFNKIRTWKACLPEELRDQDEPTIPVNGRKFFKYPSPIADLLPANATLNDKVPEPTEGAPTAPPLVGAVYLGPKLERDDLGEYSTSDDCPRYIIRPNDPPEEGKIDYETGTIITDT

T2: Scer_Rsc1 221-596 WT (Saccharomyces cerevisiae, UniProt P53236 221-596)
T2 sequence: T1 sequence with E26K, E29R, E30R

B1: A-rich (polyA) probe (dsDNA)
DNA 1: GCATCAGTCTTATAGGAAGAAAAACAAAAAGTCCATCGATCTAG
DNA 2: CTAGATCGATGGACTTTTTGTTTTTCTTCCTATAAGACTGATGC

Assays:
Assay in all cases: EMSA
[1] = tested on: Calb_Rsc1 213-599 WT (AT-hook-BD2-BAH) (Candida albicans); settings: 50 mM Tris-HCl pH 7.5, 100 mM NaCl, 2.5% glycerol, 0.1 mM EDTA, 1 mM DTT
[2] = tested on: Calb_Rsc1 213-599 BAH mutant (Candida albicans); settings: 50 mM Tris-HCl pH 7.5, 100 mM NaCl, 2.5% glycerol, 0.1 mM EDTA, 1 mM DTT
[3] = biological target: Scer_Rsc2 261-636 WT (Saccharomyces cerevisiae, UniProt Q06488 261-636)
Sequence of Scer_Rsc2 261-636 WT (Q06488 261-636): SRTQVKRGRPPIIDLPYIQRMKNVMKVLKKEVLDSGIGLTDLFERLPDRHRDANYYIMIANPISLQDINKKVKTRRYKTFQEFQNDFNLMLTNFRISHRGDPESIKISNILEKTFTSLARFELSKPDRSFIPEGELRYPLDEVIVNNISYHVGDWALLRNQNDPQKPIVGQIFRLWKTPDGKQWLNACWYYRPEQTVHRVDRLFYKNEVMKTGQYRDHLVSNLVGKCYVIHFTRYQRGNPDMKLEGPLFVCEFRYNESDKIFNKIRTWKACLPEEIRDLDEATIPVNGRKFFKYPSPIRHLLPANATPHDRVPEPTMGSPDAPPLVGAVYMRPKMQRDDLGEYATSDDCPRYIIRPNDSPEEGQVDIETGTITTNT

[4] = biological target: Scer_Rsc2 261-636 basic-surface mutant (Saccharomyces cerevisiae, UniProt Q06488 261-636, K286E;K289E;K290E)
Sequence of Scer_Rsc2 261-636 basic-surface mutant (Q06488 261-636 K286E/K289E/K290E): as the sequence (Q06488 261-636) above, with K26E, K29E, K30E counted along it

[5] = biological target: T1, Scer_Rsc1 221-596 basic-surface mutant
[6] = biological target: T2, Scer_Rsc1 221-596 WT

Molecule	Kd [1] [µM]	Kd [2] [µM]	Kd [3] [µM]	binding result [4]	binding result [5]	Kd [6] [µM]
GCATCAGTCTTATAGGAAGAAAAACAAAAAGTCCATCGATCTAG (double strand) [A-rich (polyA) probe]	7.4	–	–	–	–	–
ATCGATGTATATATCTGACACGTGCCTGGAGACTAGGGAGTAATCCCCTTGGCGGTTAAAACGCGGGGGACAGCGCGTACGTGCGTTTAAGCGGTGCTAGAGCTGTCTACGACCAATTGAGCGGCCTCGGCACCGGGATTCTGAT (double strand) [145bp 601 DNA]	1.9	> 15	–	–	–	–
ATCAGGTCGCTGTTCAATACATGCACAGGATGTATATATCTGACACGTGCCTGGAGACTAGGGAGTAATCCCCTTGGCGGTTAAAACGCGGGGGACAGCGCGTACGTGCGTTTAAGCGGTGCTAGAGCTGTCTACGACCAATTGAGCGGCCTCGGCACCGGGATTCTCCAGGGCGGCCGCGTATAGGGTCCATCGAT (double strand) [197bp 601 DNA]	1.9	11.3	–	–	–	–
B1	–	–	2.9	no binding	no binding	3.7
